Data on one molecule can be found in patent US20070122380A1 (UNIVERSITY OF CONNECTICUT, published 2007).

In the test the target is T1, c-Met (mouse, UniProt P16056 25-1379).
T1 construct: whole, on cells; also called HGFR; HGF receptor
As to the kind of experiment: confocal microscopy of cells stained with anti-IL-7R-alpha and anti-c-Met; co-localisation on scIL-7/HGF-beta-stimulated cells and on pre-pro-B cells of normal BM. An excerpt: Consistent with these blocking experiments, approximately 60% of the scIL-7/HGF-beta culture-generated CLPs and pre-pro-B cells expressed both c-Met and the IL-7R, whereas more than 80% at the rIL-7 culture-generated pro-B cells expressed the IL-7R only (data not shown). […] However, as noted previously for native IL-7/HGF-beta, scIL-7/HGF-beta was able to “prime” pre-pro-B/pro-B cells to respond to rIL-7 (FIG. 32D), presumably by up-regulating the IL-7R-alpha chain. […] Direct evidence that both the IL-7R (alpha and gamma-c chains) and c-Met are major components of the receptor complex for IL-7/HGF-beta was provided on Western blots after purification of receptor proteins from culture-generated CLPs/pre-pro-B cells on a scIL-7/HGF-beta affinity gel (FIG. 34).

B1: IL-7R (alpha and gamma-c chains) (receptor, mouse)
chain 1: ESGNAQDGDLEDADADDHSFWCHSQLEVDGSQHLLTCAFNDSDINTANLEFQICGALLRVKCLTLNKLQDIYFIKTSEFLLIGSSNICVKLGQKNLTCKNMAINTIVKAEAPSDLKVVYRKEANDFLVTFNAPHLKKKYLKKVKHDVAYRPARGESNWTHVSLFHTRTTIPQRKLRPKAMYEIKVRSIPHNDYFKGFWSEWSPSSTFETPEPKNQGGWDPVLPSVTILSLFSVFLLVILAHVLWKKRIKPVVWPSLPDHKKTLEQLCKKPKTSLNVSFNPESFLDCQIHEVKGVEARDEVESFLPNDLPAQPEELETQGHRAAVHSANRSPETSVSPPETVRRESPLRCLARNLSTCNAPPLLSSRSPDYRDGDRNRPPVYQDLLPNSGNTNVPVPVPQPLPFQSGILIPVSQRQPISTSSVLNQEEAYVTMSSFYQNK
chain 2: WSSKVLMSSANEDIKADLILTSTAPEHLSAPTLPLPEVQCFVFNIEYMNCTWNSSSEPQATNLTLHYRYKVSDNNTFQECSHYLFSKEITSGCQIQKEDIQLYQTFVVQLQDPQKPQRRAVQKLNLQNLVIPRAPENLTLSNLSESQLELRWKSRHIKERCLQYLVQYRSNRDRSWTELIVNHEPRFSLPSVDELKRYTFRVRSRYNPICGSSQQWSKWSQPVHWGSHTVEENPSLFALEAVLIPVGTMGLIITLIFVYCWLERMPPIPPIKNLEDLVTEYQGNFSAWSGVSKGLTESLQPDYSERFCHVSEIPPKGGALGEGPGGSPCSLHSPYWPPPCYSLKPEA
notes: whole, on cells; also called IL-7 receptor
In the case of B1, the binding result is “binds”.
